# Data from US20220153869A1 (TAVOTEK BIOTHERAPEUTICS HONG KONG, published 2022).
# Columns and labels:
# [1] = target: recombinant human PD-L1 (R&D systems) (human, UniProt Q9NZQ7 19-239); test: ELISA, recombinant human PD-L1 coated at 1 ug/mL, anti-human IgG-HRP
# Method: ELISA-based binding assays were employed to evaluate the binding to PD-L1 by these bispecific antibodies (FIG. 31A). In these assays, 1 μg/mL recombinant human PD-L1 (R&D systems) were coated on ELISA plate. Increasing concentrations of exemplary HER2 x VEGF bispecific antibodies with ScFv of an anti-PD-L1 antibody as a homing domain were applied on the plate and their bindings to the recombinant human PD-L1 were detected by HRP-conjugated anti-human IgG secondary antibody.
# [2] = target: T1, HER2 expressed on SK-BR-3 cell surface (UniProt P04626 23-1255, limits assumed); test: flow cytometry on SK-BR-3 cells, PE anti-human secondary
# T1 construct: whole, on cells; also called cell surface HER2; HER2-expressing SK-BR-3 cells
# Source text: (§1) Flow cytometry-based binding assays were also employed to evaluate the binding to HER2 expressed on cell surface by exemplary HER2 x VEGF bispecific antibodies with or without IGF2 masking domain (FIG. 10). In these assays, increasing concentrations of exemplary HER2 x VEGF bispecific antibodies were applied to HER2-expressing SK-BR-3 cells and their bindings to cell surface HER2 were detected by PE-conjugated anti-human secondary antibody by MacsQuant flow cytometer.
# [3] = target: T2, recombinant human HER2 (R&D systems) (human, UniProt P04626 23-652); test: ELISA, recombinant human HER2 coated at 1 ug/mL, anti-human IgG-HRP
# Method: (§2) ELISA-based binding assays were employed to evaluate the binding to HER2 by exemplary HER2 x VEGF bispecific antibodies with or without IGF2 masking domain (FIG. 9). In these assays, 1 μg/mL recombinant human HER2 (R&D systems) were coated on ELISA plate. Increasing concentrations of exemplary HER2 x VEGF bispecific antibodies were applied on the plate and their bindings to the recombinant human HER2 were detected by HRP-conjugated anti-human IgG secondary antibody.
# [4] = target: T1, HER2 expressed on SK-BR-3 cell surface; test: flow cytometry on SK-BR-3 cells; unmasked reference of the comparison (higher potency than uncut)
# Source text: as §1
# [5] = target: T2, recombinant human HER2 (R&D systems); test: ELISA, recombinant human HER2 coated; unmasked reference of the comparison (higher potency than uncut)
# Method: as §2
# [6] = target: T1, HER2 expressed on SK-BR-3 cell surface; test: flow cytometry on SK-BR-3 cells; masked antibody, not digested
# Source text: as §1
# [7] = target: T2, recombinant human HER2 (R&D systems); test: ELISA, recombinant human HER2 coated; masked antibody, not digested
# Method: as §2
# Sequence of recombinant human PD-L1 (R&D systems) (Q9NZQ7 19-239 limits assumed): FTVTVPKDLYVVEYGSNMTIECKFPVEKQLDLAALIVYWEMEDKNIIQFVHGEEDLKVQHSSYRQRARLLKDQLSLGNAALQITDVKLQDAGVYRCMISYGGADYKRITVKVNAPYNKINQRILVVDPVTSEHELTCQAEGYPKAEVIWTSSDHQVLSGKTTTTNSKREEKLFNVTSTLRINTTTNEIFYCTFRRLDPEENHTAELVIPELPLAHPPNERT
Binder,binding result [1],binding result [4],binding result [5],also measured
"Tras x Beva_IgG1_LS (bispecific antibody, also called HER2 x VEGF bispecific antibody) heavy 1: not shown light 1: not shown heavy 2: EVQLVESGGGLVQPGGSLRLSCAASGYTFTNYGMNWVRQAPGKGLEWVGWINTYTGEPTYAADFKRRFTFSLDTSKSTAYLQMNSLRAEDTAVYYCAKYPHYYGSSHWYFDVWGQGTLVTVSSASTKGPSVFPLAPSSKSTSGGTAALGCLVKDYFPEPVTVSWNSGALTSGVHTFPAVLQSSGLYSLSSVVTVPSSSLGTQTYICNVNHKPSNTKVDKKVEPKSCDKTHTCPPCPAPELLGGPSVFLFPPKPKDTLMISRTPEVTCVVVDVSHEDPEVKFNWYVDGVEVHNAKTKPREEQYNSTYRVVSVLTVLHQDWLNGKEYKCKVSNKALPAPIEKTISKAKGQPREPQVYTLPPSRDELTKNQVSLTCLVKGFYPSDIAVEWESNGQPENNYKTTPPVLDSDGSFFLYSRLTVDKSRWQQGNVFSCSVLHEALHSHYTQKSLSLSPGK light 2: not shown",no binding,,,
"Beva_IgG1_LS (antibody, V domains shown, also called EAC291/EAC207) VH: EVQLVESGGGLVQPGGSLRLSCAASGYTFTNYGMNWVRQAPGKGLEWVGWINTYTGEPTYAADFKRRFTFSLDTSKSTAYLQMNSLRAEDTAVYYCAKYPHYYGSSHWYFDVWGQGTLVTVSS VL: DIQMTQSPSSLSASVGDRVTITCSASQDISNYLNWYQQKPGKAPKVLIYFTSSLHSGVPSRFSGSGSGTDFTLTISSLQPEDFATYYCQQYSTVPWTFGQGTKVEIKR",,,,binding result [2]: no binding; binding result [3]: no binding
TrasVH1VL1 x BevaVH3VL1_IgG1_LS (bispecific antibody) heavy 1: QVQLVQSGAEVKKPGSSVKVSCKASGFNIKDTYIHWVRQAPGQGLEWMGRIYPTNGYTRYAQKFQGRATITADESTSTAYMEVSSLRSEDTAVYYCSRWGGDGFYAMDYWGQGTLVTVSSASTKGPSVFPLAPSSKSTSGGTAALGCLVKDYFPEPVTVSWNSGALTSGVHTFPAVLQSSGLYSLSSVVTVPSSSLGTQTYICNVNHKPSNTKVDKKVEPKSCDKTHTCPPCPAPELLGGPSVFLFPPKPKDTLMISRTPEVTCVVVDVSHEDPEVKFNWYVDGVEVHNAKTKPREEQYNSTYRVVSVLTVLHQDWLNGKEYKCKVSNKALPAPIEKTISKAKGQPREPQVYTLPPSRDELTKNQVSLTCLVKGFYPSDIAVEWESNGQPENNYKTTPPVLDSDGSFLLYSKLTVDKSRWQQGNVFSCSVLHEALHSHYTQKSLSLSPGK light 1: DIVMTQTPLSLPVTPGEPASISCRASQDVNTAVAWYLQKPGQSPQLLIYSASFRYTGVPDRFSGSGSGTDFTLKISRVEAEDVGVYYCQQHYTTPPTFGQGTKVEIKRTVAAPSVFIFPPSDEQLKSGTASVVCLLNNFYPREAKVQWKVDNALQSGNSQESVTEQDSKDSTYSLSSTLTLSKADYEKHKVYACEVTHQGLSSPVTKSFNRGEC heavy 2: QVQLVQSGAEVKKPGSSVKVSCKASGYTFTNYGMNWVRQAPGQGLEWMGWINTYTGEPTYAQKFQGRVTITADESTSTAYMELSSLRSEDTAVYYCAKYPHYYGSSHWYFDVWGQGTLVTVSSASTKGPSVFPLAPSSKSTSGGTAALGCLVKDYFPEPVTVSWNSGALTSGVHTFPAVLQSSGLYSLSSVVTVPSSSLGTQTYICNVNHKPSNTKVDKKVEPKSCDKTHTCPPCPAPELLGGPSVFLFPPKPKDTLMISRTPEVTCVVVDVSHEDPEVKFNWYVDGVEVHNAKTKPREEQYNSTYRVVSVLTVLHQDWLNGKEYKCKVSNKALPAPIEKTISKAKGQPREPQVYTLPPSRDELTKNQVSLTCLVKGFYPSDIAVEWESNGQPENNYKTTPPVLDSDGSFFLYSRLTVDKSRWQQGNVFSCSVLHEALHSHYTQKSLSLSPGK light 2: not shown,,binds,binds,
IGF2_MMP2_TrasVH1VL1 x BevaVH3VL1_IgG1_LS_E345R uncut (bispecific antibody) heavy 1: GILEECCFRSCDLALLETYCAGGGGSPLGLAGGGGGSQVQLVQSGAEVKKPGSSVKVSCKASGFNIKDTYIHWVRQAPGQGLEWMGRIYPTNGYTRYAQKFQGRATITADESTSTAYMEVSSLRSEDTAVYYCSRWGGDGFYAMDYWGQGTLVTVSSASTKGPSVFPLAPSSKSTSGGTAALGCLVKDYFPEPVTVSWNSGALTSGVHTFPAVLQSSGLYSLSSVVTVPSSSLGTQTYICNVNHKPSNTKVDKKVEPKSCDKTHTCPPCPAPELLGGPSVFLFPPKPKDTLMISRTPEVTCVVVDVSHEDPEVKFNWYVDGVEVHNAKTKPREEQYNSTYRVVSVLTVLHQDWLNGKEYKCKVSNKALPAPIEKTISKAKGQPRRPQVYTLPPSRDELTKNQVSLTCLVKGFYPSDIAVEWESNGQPENNYKTTPPVLDSDGSFLLYSKLTVDKSRWQQGNVFSCSVLHEALHSHYTQKSLSLSPGK light 1: AYRPSETLCGGELVDTLQFVCGDRGFAFGGGGSPLGLAGGGGGSDIVMTQTPLSLPVTPGEPASISCRASQDVNTAVAWYLQKPGQSPQLLIYSASFRYTGVPDRFSGSGSGTDFTLKISRVEAEDVGVYYCQQHYTTPPTFGQGTKVEIKRTVAAPSVFIFPPSDEQLKSGTASVVCLLNNFYPREAKVQWKVDNALQSGNSQESVTEQDSKDSTYSLSSTLTLSKADYEKHKVYACEVTHQGLSSPVTKSFNRGEC heavy 2: GILEECCFRSCDLALLETYCAGGGGSPLGLAGGGGGSQVQLVQSGAEVKKPGSSVKVSCKASGYTFTNYGMNWVRQAPGQGLEWMGWINTYTGEPTYAQKFQGRVTITADESTSTAYMELSSLRSEDTAVYYCAKYPHYYGSSHWYFDVWGQGTLVTVSSASTKGPSVFPLAPSSKSTSGGTAALGCLVKDYFPEPVTVSWNSGALTSGVHTFPAVLQSSGLYSLSSVVTVPSSSLGTQTYICNVNHKPSNTKVDKKVEPKSCDKTHTCPPCPAPELLGGPSVFLFPPKPKDTLMISRTPEVTCVVVDVSHEDPEVKFNWYVDGVEVHNAKTKPREEQYNSTYRVVSVLTVLHQDWLNGKEYKCKVSNKALPAPIEKTISKAKGQPRRPQVYTLPPSRDELTKNQVSLTCLVKGFYPSDIAVEWESNGQPENNYKTTPPVLDSDGSFFLYSRLTVDKSRWQQGNVFSCSVLHEALHSHYTQKSLSLSPGK light 2: not shown,,,,binding result [6]: binds; binding result [7]: binds

# The next lines start with results.
binding result [1],binding result [4],binding result [5],Binder,also measured
no binding,,,Tras x Beva_IgG1_LS_E345R (bispecific antibody) heavy 1: not shown light 1: not shown heavy 2: EVQLVESGGGLVQPGGSLRLSCAASGYTFTNYGMNWVRQAPGKGLEWVGWINTYTGEPTYAADFKRRFTFSLDTSKSTAYLQMNSLRAEDTAVYYCAKYPHYYGSSHWYFDVWGQGTLVTVSSASTKGPSVFPLAPSSKSTSGGTAALGCLVKDYFPEPVTVSWNSGALTSGVHTFPAVLQSSGLYSLSSVVTVPSSSLGTQTYICNVNHKPSNTKVDKKVEPKSCDKTHTCPPCPAPELLGGPSVFLFPPKPKDTLMISRTPEVTCVVVDVSHEDPEVKFNWYVDGVEVHNAKTKPREEQYNSTYRVVSVLTVLHQDWLNGKEYKCKVSNKALPAPIEKTISKAKGQPRRPQVYTLPPSRDELTKNQVSLTCLVKGFYPSDIAVEWESNGQPENNYKTTPPVLDSDGSFFLYSRLTVDKSRWQQGNVFSCSVLHEALHSHYTQKSLSLSPGK light 2: not shown,
,binds,binds,TrasVH1VL1 x BevaVH3VL1_IgG1_LS_E345R (bispecific antibody) heavy 1: QVQLVQSGAEVKKPGSSVKVSCKASGFNIKDTYIHWVRQAPGQGLEWMGRIYPTNGYTRYAQKFQGRATITADESTSTAYMEVSSLRSEDTAVYYCSRWGGDGFYAMDYWGQGTLVTVSSASTKGPSVFPLAPSSKSTSGGTAALGCLVKDYFPEPVTVSWNSGALTSGVHTFPAVLQSSGLYSLSSVVTVPSSSLGTQTYICNVNHKPSNTKVDKKVEPKSCDKTHTCPPCPAPELLGGPSVFLFPPKPKDTLMISRTPEVTCVVVDVSHEDPEVKFNWYVDGVEVHNAKTKPREEQYNSTYRVVSVLTVLHQDWLNGKEYKCKVSNKALPAPIEKTISKAKGQPRRPQVYTLPPSRDELTKNQVSLTCLVKGFYPSDIAVEWESNGQPENNYKTTPPVLDSDGSFLLYSKLTVDKSRWQQGNVFSCSVLHEALHSHYTQKSLSLSPGK light 1: DIVMTQTPLSLPVTPGEPASISCRASQDVNTAVAWYLQKPGQSPQLLIYSASFRYTGVPDRFSGSGSGTDFTLKISRVEAEDVGVYYCQQHYTTPPTFGQGTKVEIKRTVAAPSVFIFPPSDEQLKSGTASVVCLLNNFYPREAKVQWKVDNALQSGNSQESVTEQDSKDSTYSLSSTLTLSKADYEKHKVYACEVTHQGLSSPVTKSFNRGEC heavy 2: QVQLVQSGAEVKKPGSSVKVSCKASGYTFTNYGMNWVRQAPGQGLEWMGWINTYTGEPTYAQKFQGRVTITADESTSTAYMELSSLRSEDTAVYYCAKYPHYYGSSHWYFDVWGQGTLVTVSSASTKGPSVFPLAPSSKSTSGGTAALGCLVKDYFPEPVTVSWNSGALTSGVHTFPAVLQSSGLYSLSSVVTVPSSSLGTQTYICNVNHKPSNTKVDKKVEPKSCDKTHTCPPCPAPELLGGPSVFLFPPKPKDTLMISRTPEVTCVVVDVSHEDPEVKFNWYVDGVEVHNAKTKPREEQYNSTYRVVSVLTVLHQDWLNGKEYKCKVSNKALPAPIEKTISKAKGQPRRPQVYTLPPSRDELTKNQVSLTCLVKGFYPSDIAVEWESNGQPENNYKTTPPVLDSDGSFFLYSRLTVDKSRWQQGNVFSCSVLHEALHSHYTQKSLSLSPGK light 2: not shown,
